Test results from patent US11998609B2, “Self-assembling antiviral prodrugs” (priority 2021, dated 2024).
Residues, ends and D or L forms follow the SMILES beside them. *: point of attachment. X1 = C[C@H](Cn1cnc2c(N)ncnc21)OCP(=O)(O)OCCS*; Palmitoyl = CCCCCCCCCCCCCCCC(=O)*

Experiments:
[1] = In vivo pharmacokinetics and biodistribution
Experimental: Samples were dried under a N2 stream, reconstituted in 100 μl of 80% v/v LC-MS grade MeOH/H2O. 10 μl of the sample solution was injected into Waters Acquity/Xevo-G2 UPLC/MS system (Milford, MA) for analysis.
For tissue analysis, an optimized amount of tissue sample was processed using a tissue homogenizer in 5 volumes of 90% v/v LC/MS grade MeCN/H2O. 100 μL Tissue homogenate was mixed with 90 μL of 90% v/v LC/MS grade MeCN/H2O, 10 μL of LC-MS-grade water, and 10 μL 500 ng/ml Emtricitabine solution (as IS). After extraction, 10 μl of the sample solution was injected into Waters Acquity/Xevo-G2 UPLC/MS system (Milford, MA) for analysis.

[2] = Stability of TFV-PAs and redox triggered release of free TFV (with/without DTT); format: in vitro ADME; conditions: 37° C.; for prodrug stability without DTT: 100 μM in 1× PBS, absence of DTT; for TFV released: 100 μM, 10 mM DTT, 1× PBS
Experimental: Stability of the TFV-PAs and redox triggered release of free TFV was assessed by aging TFV-PA solutions in the presence and absence of 10 mM dithiothreitol (DTT). 200 µM solutions of TFV-PA2 and TFV-PA3 solutions were prepared using deionized H2O and allowed to age at RT for 24 hours. A 20 mM solution of DTT was prepared by diluting a stock 1 M DTT solution with 2× phosphate buffered solution (PBS). 500 μL of 2× PBS was added to an equal volume of each TFV-PA solution to give the DTT negative samples with a final TFV-PA concentration of 100 μM in 1× PBS. 500 μL of 20 mM DTT solution was added to an equal volume of each TFV-PA solution to give the DTT positive samples with a final TFV-PA concentration of 100 μM and 10 mM DTT in 1× PBS. Each experimental condition was prepared in triplicate. Solutions were allowed to age at 37° C. and 50 μL samples were collected at predetermined time points (0, 1, 2, 4, 8, 12, 24, 48, and 72 h), flash frozen in liquid nitrogen, and then stored in a −20° C. freezer. 2 μL of hydrochloric acid was added to the DTT positive samples upon collection to quench the reaction. Samples were thawed and immediately analyzed using the Agilent Infinity II RP-HPLC. The relative proportions of remaining TFV-PA were determined using the ratio of the AUC of the TFV-PA peak in the 260 nm chromatograph to that of the 0 hour samples. For select samples, 1 μL of solution was diluted in 900 μL MeOH and 100 μL 0.1% aq. formic acid and subjected to ESI MS to identify the molecules in the sample.

[3] = system: HBV; format: cell-based, hepatitis B virus; conditions: HepAD38 cells, qPCR of cellular supernatant; FIG. 5 legend; read-out: IC50, reduction of HBV production
Experimental: Anti-HBV efficacy was evaluated on HepAD38 cells, using an adaptation of a procedure described in Ladner, Antimicrob. Agents Chemother. 41: 1715-20, 1997, incorporated herein by reference. HepAD38 cells were plated on collagen coated 96-well flat-bottomed plates at a density of 6×10^4 cells/well and grown for 3 days in the presence of 200 μL of Ham's F-12K (Kaighn's) Medium supplemented with 10% fetal bovine serum (FBS), 1% of an antibiotic solution (penicillin and streptomycin), and 0.3 mg/mL tetracycline at 37° C. in 5% carbon dioxide. On day zero the cells were washed with PBS and treated with tetracycline-free F-12K medium containing TFV, TFV-PA2, or TFV-PA3 (180 μL of medium supplemented with 20 μL of 10× concentration therapeutic solution to give 200 μL of medium at the final therapeutic concentration). Each therapeutic was screened at a minimum of five concentrations in quadruplicate. Water treated cells (180 μL of medium supplemented with 20 μL of H2O) were used as the negative control. On day three the medium was removed and replaced with 200 μL of fresh tetracycline-free medium containing the test compound at the appropriate concentration. […] HBV DNA was quantified by qPCR, using Integrated DNA Technologies PrimeTime Gene Expression Master Mix (Integrated DNA Technologies, Coralville, IA) and HBV TaqMan primer/probe (20×, Assay ID Vi03453405_s1, ThermoFisher Scientific, Pittsburgh, PA). A serial dilution of gBlocks Gene Fragments (Integrated DNA Technologies, Coralville, IA) of known HBV copy number was used as the standard for the absolute quantification of DNA copy number from cycle threshold values. […] Percent HBV production for each therapeutic concentration was determined based on average number of copies of HBV DNA produced by water treated cells and averaged between the three biological repeats of the assay before being plotted against concentration. […]

[4] = In vitro prodrug release from TFV-PA hydrogels; format: physicochemical; conditions: day 30, in vitro
Experimental: To study gel release, 5 mM and 10 mM solutions of TFV-PA2 and TFV-PA3 were prepared using deionized water and allowed to age at RT for 48 hours. 45 μL of each solution was aliquoted into three 0.5 mL microcentrifuge tubes and 5 μL of 10× PBS was added to each vial to form a hydrogel with a final concentration of 1× PBS. Gels were allowed to set for 5-10 minutes before 60 μL of 1× PBS was added to the surface as the release media. The vials were then allowed to age at 37° C. Every 2 days, 50 μL of gel release supernatant was collected and replaced with an equal volume of fresh 1× PBS. Samples were frozen and stored at −20° C. for future analysis by RP-HPLC. On select days, 5 μL of release supernatant was collected 24 hours after supernatant exchange and used to prepare a negatively stained transmission electron microscope grid for analysis with the Talos transmission electron microscope. The grid was prepared as described above, except the sample was blotted with 5 μL deionized water (wicked immediately) after the sample was wicked away to remove excess salts from the PBS. Once the release experiment was complete, samples were thawed and 1-2 mg of TCEP was added to 25 μL sample solution and an equal volume of acetonitrile, then vortexed and sonicated at 37° C. for 10 minutes to ensure complete cleavage of the TFV moiety from the TFV-PAs. […]

[5] = cited from earlier work

Structure (SMILES) | drug levels after free drug administration ([1]; after three days, mice) | MRT ([1]; male, Balb/cJ, mouse, in vivo, sc, 75 mg/kg) | prodrug stability without DTT [2] | TFV released ([2]; after 1 hour) | TFV released ([2]; by 24 hours) | IC50 [3] | TFV released ([2]; after 4 hours) | initial prodrugs remaining in hydrogel [4] | log P [5]
Nc1ccn([C@@H]2CS[C@H](CO)O2)c(=O)n1 [3TC, 2′,3′-Dideoxy-3′-Thiacytidine] | below detection | 50.4 h |  |  |  |  |  |  | 
CCCCCCCCCCCCCCCC(=O)N[C@H](C(=O)N[C@H](C(=O)N[C@@H](CSSCCOP(=O)(O)CO[C@H](C)Cn1cnc2c(N)ncnc21)C(=O)N[C@@H](CCC(=O)O)C(=O)O)C(C)C)C(C)C [TFV-PA2] (Palmitoyl-VVC(X1)E-OH) |  |  | stable at 37 °C and in 1× PBS for 3 days | more than 90% | all TFV released | 1.5 µM |  |  | 
CCCCCCCCCCCCCCCC(=O)N[C@H](C(=O)N[C@H](C(=O)N[C@H](C(=O)N[C@@H](CSSCCOP(=O)(O)CO[C@H](C)Cn1cnc2c(N)ncnc21)C(=O)N[C@@H](CCC(=O)O)C(=O)O)C(C)C)C(C)C)C(C)C [TFV-PA3] (Palmitoyl-VVVC(X1)E-OH) |  |  | stable at 37 °C and in 1× PBS for 3 days |  | all TFV released | 0.25 µM | more than 70% | more than 80% | 
C[C@H](Cn1cnc2c(N)ncnc21)OCP(=O)(O)O [TFV, tenofovir, reference compound] |  |  |  |  |  | 1.1 µM |  |  | −2.5
